Source: patent US20100285028A1

Target: von Willebrand factor (mouse) (UniProt Q8CIZ8)
Assay: cell-based or functional assay

UniProt Q8CIZ8, sequence (Q8CIZ8 764-2813 limits assumed): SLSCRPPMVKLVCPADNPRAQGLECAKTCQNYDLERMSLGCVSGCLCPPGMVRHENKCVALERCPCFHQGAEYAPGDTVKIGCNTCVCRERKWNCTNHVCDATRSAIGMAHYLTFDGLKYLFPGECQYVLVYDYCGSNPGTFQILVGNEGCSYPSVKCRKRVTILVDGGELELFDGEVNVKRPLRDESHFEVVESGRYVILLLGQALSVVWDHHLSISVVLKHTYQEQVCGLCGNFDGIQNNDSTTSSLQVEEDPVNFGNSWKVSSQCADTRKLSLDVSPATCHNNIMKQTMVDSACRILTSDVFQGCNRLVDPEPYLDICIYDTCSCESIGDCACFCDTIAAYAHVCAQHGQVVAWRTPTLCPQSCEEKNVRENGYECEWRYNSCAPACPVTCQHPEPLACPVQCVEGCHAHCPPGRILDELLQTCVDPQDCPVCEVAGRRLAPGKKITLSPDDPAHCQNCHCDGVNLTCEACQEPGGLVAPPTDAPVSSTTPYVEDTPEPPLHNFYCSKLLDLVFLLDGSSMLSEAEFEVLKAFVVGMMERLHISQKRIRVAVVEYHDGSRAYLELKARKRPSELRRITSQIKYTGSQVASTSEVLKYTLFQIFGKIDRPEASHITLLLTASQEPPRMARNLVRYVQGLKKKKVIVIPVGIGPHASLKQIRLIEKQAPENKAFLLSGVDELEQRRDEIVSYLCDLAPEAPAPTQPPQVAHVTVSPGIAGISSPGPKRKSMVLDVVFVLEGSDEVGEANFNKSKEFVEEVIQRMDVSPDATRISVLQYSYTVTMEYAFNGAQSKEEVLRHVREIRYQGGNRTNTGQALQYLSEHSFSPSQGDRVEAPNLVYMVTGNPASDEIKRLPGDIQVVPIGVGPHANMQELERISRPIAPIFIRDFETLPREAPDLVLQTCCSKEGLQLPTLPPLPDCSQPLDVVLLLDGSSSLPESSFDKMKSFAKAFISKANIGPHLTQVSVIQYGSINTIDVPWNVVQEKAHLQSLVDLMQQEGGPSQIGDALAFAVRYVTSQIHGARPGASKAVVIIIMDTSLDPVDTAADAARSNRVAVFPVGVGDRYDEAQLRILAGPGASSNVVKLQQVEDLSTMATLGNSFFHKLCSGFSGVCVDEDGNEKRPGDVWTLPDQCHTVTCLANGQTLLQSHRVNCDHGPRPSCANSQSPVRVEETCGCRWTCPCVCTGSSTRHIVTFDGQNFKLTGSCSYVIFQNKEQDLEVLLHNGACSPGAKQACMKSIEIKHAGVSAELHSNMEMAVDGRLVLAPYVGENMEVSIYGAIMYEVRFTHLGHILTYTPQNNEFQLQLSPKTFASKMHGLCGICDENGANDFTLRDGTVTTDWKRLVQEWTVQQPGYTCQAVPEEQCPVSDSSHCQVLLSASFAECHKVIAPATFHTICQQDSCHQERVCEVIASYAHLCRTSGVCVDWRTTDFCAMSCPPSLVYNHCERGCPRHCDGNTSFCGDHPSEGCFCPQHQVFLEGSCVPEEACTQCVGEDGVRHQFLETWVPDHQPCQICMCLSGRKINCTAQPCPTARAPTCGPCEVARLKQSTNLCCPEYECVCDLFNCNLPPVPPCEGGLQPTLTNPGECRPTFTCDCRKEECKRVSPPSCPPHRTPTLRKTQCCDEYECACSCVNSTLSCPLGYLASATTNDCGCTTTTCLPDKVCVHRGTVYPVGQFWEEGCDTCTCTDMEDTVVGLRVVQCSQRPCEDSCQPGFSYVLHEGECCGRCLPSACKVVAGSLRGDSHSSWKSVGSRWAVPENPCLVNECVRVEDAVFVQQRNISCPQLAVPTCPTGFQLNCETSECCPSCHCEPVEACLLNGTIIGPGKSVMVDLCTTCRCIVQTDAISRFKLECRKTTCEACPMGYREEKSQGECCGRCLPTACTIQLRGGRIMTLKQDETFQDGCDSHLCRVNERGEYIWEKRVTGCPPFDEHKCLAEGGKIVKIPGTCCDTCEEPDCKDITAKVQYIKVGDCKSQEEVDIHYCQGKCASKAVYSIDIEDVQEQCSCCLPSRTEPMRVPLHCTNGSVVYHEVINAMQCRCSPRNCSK

circulating plasma vWF abundance in mice lacking Asgr-1: 1.5 fold
Substance: Asgr-1 chain of the Ashwell receptor (from UniProt P34927 1-284)
